How the values were obtained:
[1] = biological target: GDF15/GFRAL complex (Homo sapiens) (UniProt Q99988); conditions: cited from earlier work
[2] = biological target: Fc-GDF15/GFRAL complex (formed beforehand) (human) (UniProt Q99988); assay: BLI; Fc-GDF15 (15 uM) immobilised on anti-hIgG Fc capture biosensors, saturated with GFRAL (3 uM), then RET^C634R 0.3-42 uM; saturation signals fitted to a sigmoidal model
[3] = biological target: RET^C634R extracellular domain dimer (human RET residues 1-635 with C634R, C86R and C216S) (human) (UniProt P07949); assay: SEC-MALS; Superdex 200 10/300 GL, 0.25 ml/min, RT, 20 mM Hepes pH 7.5, 100 mM NaCl, 1 mM CaCl2
[4] = biological target: T1, WT RET extracellular domain (human RET residues 1-635) (human, UniProt P07949 29-635, glycosylated (near-native glycans)); assay: native gel or EMSA; Blue Native PAGE; Fc-GDF15 dimer 2 uM + GFRAL 4 uM for 15 min (with or without thrombin), then RET^WT monomer 4 uM or RET^C634R dimer 2 uM; RET + copurified GDNF/GFRα1 at 1:1; 30 min at RT; run at 100 V, 4 °C; also after 5 min heating at 50-85 °C for melting curves; conditions: both partners purified
T1 construct: signal peptide in the construct; human RET extracellular domain, residues 1-635; TEV site before the His8-Flag tags; also called RET^WT; RET^WT ECD; source: HEK293T, transient expression, secreted; purified (Ni-NTA, anti-Flag)
T1 sequence (P07949 29-635): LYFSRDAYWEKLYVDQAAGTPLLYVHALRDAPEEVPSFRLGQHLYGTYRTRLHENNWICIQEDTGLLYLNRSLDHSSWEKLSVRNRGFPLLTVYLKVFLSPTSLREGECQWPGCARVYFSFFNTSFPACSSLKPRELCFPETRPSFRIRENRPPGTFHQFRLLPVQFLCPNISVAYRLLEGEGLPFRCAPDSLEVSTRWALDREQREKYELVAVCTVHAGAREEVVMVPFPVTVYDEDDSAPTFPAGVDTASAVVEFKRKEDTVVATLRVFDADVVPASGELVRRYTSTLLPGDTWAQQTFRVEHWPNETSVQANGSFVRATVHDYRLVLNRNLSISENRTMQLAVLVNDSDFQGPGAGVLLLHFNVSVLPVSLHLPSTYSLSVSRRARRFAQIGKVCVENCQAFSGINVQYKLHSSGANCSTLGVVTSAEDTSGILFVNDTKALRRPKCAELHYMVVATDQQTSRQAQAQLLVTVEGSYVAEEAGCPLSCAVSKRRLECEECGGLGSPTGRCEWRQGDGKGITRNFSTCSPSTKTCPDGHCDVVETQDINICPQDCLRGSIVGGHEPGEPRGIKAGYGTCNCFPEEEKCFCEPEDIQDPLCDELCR

In the case of RET ECD (from UniProt P07949), the Kd [1] is given as 3.2 µM.

For “RET^C634R extracellular domain dimer (human RET residues 1-635 with C634R, C86R and C216S) (from UniProt P07949 29-635) (domain or fragment)”, the Kd [2] was 8.5 µM and the stoichiometry N [3] was 2.

B1: GDF15/GFRAL complex with the Fc removed by thrombin (formed beforehand) (complex, human)
chain 1: ARARNGDHCPLGPGRCCRLHTVRASLEDLGWADWVLSPREVQVTMCIGACPSQFRAANMHAQIKTSLHRLKPDTVPAPCCVPASYNPMVLIQKTDTGVSLQTYDDLLAKDCHCI
chain 2: SQTNNCTYLREQCLRDANGCKHAWRVMEDACNDSDPGDPCKMRNSSYCNLSIQYLVESNFQFKECLCTDDFYCTVNKLLGKKCINKSDNVKEDKFKWNLTTRSHHGFKGMWSCLEVAEACVGDVVCNAQLASYLKACSANGNPCDLKQCQAAIRFFYQNIPFNIAQMLAFCDCAQSDIPCQQSKEALHSKTCAVNMVPPPTCLSVIRSCQNDELCRRHYRTFQSKCWQRVTRKCHEDENCISTLSKQDLTCSGSDDCKAAYIDILGTVLQVQCTCRTITQSEESLCKIFQHMLHRKSCFNYPTLSNVKGMALYTRKHANKITLTGFHSPFNGE
notes: human GDF15, residues 195-308; human GFRAL, residues 19-351; as m4; not shown: modified Fc, N-terminal, cleaved; copies: 2 + 2
B1: binds [4].

Reference: PMC9490035, “Unexpected structures formed by the kinase RET C634R mutant extracellular domain suggest potential oncogenic mechanisms in MEN2A” (The Journal of Biological Chemistry, 2022)
